Earlier results in paper PMC2797979 (Diabetes Care, 2009).

Settings: long-acting insulin analogs

detemir
Elimination half-life: 24 h
